What was measured:
Assay in all cases: ITC
H3(20-35)K27me3 peptide = molecular target: H3(20-35)K27me3 peptide
H3(1-15)K4me3 peptide = molecular target: H3(1-15)K4me3 peptide
[1] = molecular target: H3(1-35)K4me3K27me3 doubly methylated peptide

Kd (H3(20-35)K27me3 peptide) [µM]	Kd (H3(1-15)K4me3 peptide) [µM]	stoichiometry N [1]	Substance
49.8	86.8	–	EARLY BOLTING IN SHORT DAY (EBS), full length (from UniProt F4JL28 1-234) (natural protein)
–	30.7	1	EBS without the C-terminal autoinhibition loop (EBSΔC, 1-199) (from UniProt F4JL28 1-199) (domain or fragment)

Reference: article PMC6556434
